# From the Human Domainome abundance scans (Beltran et al. 2025)
# ± gives the uncertainty stated by the source.
# B1: SAM and SH3 domain-containing protein 1, residues 630 to 700; numbered along this chain, O94885 (parent)
# chain: GRPPQPKSVEDLLDRINLKEHMPTFLFNGYEDLDTFKLLEEEDLDELNIRDPEHRAVLLTAVELLQEYDSN
# Variants of: B1
# Experiment: abundance fitness (aPCA) (normalised: wild type 0, dead -1); higher = more abundant; growth selection in yeast, the domain comes from the species named
# Settings: Homo sapiens
row,Variant,abundance fitness
1,E40W,-0.933 ± 0.098
2,E40D,0.011 ± 0.057
3,E40K,0.347 ± 0.046
4,E40Y,-0.829 ± 0.069
5,L26E,-0.188 ± 0.05
6,L26H,-0.44 ± 0.066
7,P52L,-0.61 ± 0.042
8,P52C,-0.565 ± 0.064
9,P52N,-0.569 ± 0.062
10,E42F,-0.743 ± 0.067
11,E42C,-0.222 ± 0.053
12,E42Q,-0.023 ± 0.049
13,E42L,-0.6 ± 0.045
14,E42H,0.055 ± 0.041
15,E42G,0.013 ± 0.049
16,E42I,-0.477 ± 0.055
17,E42V,-0.302 ± 0.046
18,E42N,-0.094 ± 0.046
19,H21I,-0.459 ± 0.056
20,H21M,-0.085 ± 0.046
21,H21C,-0.536 ± 0.058
22,L65H,-0.853 ± 0.083
23,L65C,-0.538 ± 0.07
24,L65P,-0.88 ± 0.08

row,Variant,abundance fitness
1,R50H,0.072 ± 0.046
2,R50I,-0.11 ± 0.052
3,R50S,-0.06 ± 0.036
4,R50D,-0.057 ± 0.051
5,R50T,0.183 ± 0.037
6,R50A,-0.301 ± 0.043
7,R50W,0.003 ± 0.055
8,R50Y,-0.012 ± 0.047
9,L44F,-0.38 ± 0.061
10,L44H,-0.941 ± 0.1
11,L44N,-0.822 ± 0.081
12,L44Y,-0.755 ± 0.085
13,L44W,-0.773 ± 0.085
14,N17L,-0.891 ± 0.059
15,N17T,-0.842 ± 0.064
16,N17F,-0.726 ± 0.085
17,L39A,-0.881 ± 0.068
18,L39H,-0.812 ± 0.072
19,L39Q,-0.892 ± 0.098
20,L39Y,-0.929 ± 0.078
21,S8A,-0.889 ± 0.093
22,S8V,-1.02 ± 0.1
23,S8K,-0.759 ± 0.11
24,S8C,-0.701 ± 0.087

row,Variant,abundance fitness
1,T24G,-0.713 ± 0.056
2,T24C,-0.474 ± 0.057
3,T24P,-0.88 ± 0.069
4,E10Y,-0.418 ± 0.055
5,E10Q,-0.445 ± 0.066
6,E10T,-0.559 ± 0.052
7,E10C,-0.463 ± 0.071
8,K7S,-0.097 ± 0.038
9,K7F,-0.5 ± 0.053
10,K7V,-0.126 ± 0.043
11,K7Q,-0.119 ± 0.067
12,K7D,-0.213 ± 0.06
13,M22I,0.131 ± 0.039
14,M22R,-0.612 ± 0.046
15,M22W,0.281 ± 0.041
16,M22G,-0.346 ± 0.042
17,M22Q,-0.366 ± 0.056
18,M22H,-0.313 ± 0.049
19,M22N,-0.503 ± 0.056
20,V9H,-0.909 ± 0.079
21,V9E,-0.876 ± 0.13
22,V9A,-0.844 ± 0.073
23,V9R,-0.969 ± 0.084
24,P6C,-0.507 ± 0.071

row,Variant,abundance fitness
1,P6L,-0.434 ± 0.045
2,P6N,-0.792 ± 0.11
3,P6V,-0.168 ± 0.044
4,P6G,-0.655 ± 0.061
5,P6S,-0.533 ± 0.049
6,G1V,-0.049 ± 0.051
7,G1L,0.036 ± 0.066
8,L64P,-0.595 ± 0.057
9,L64R,0.199 ± 0.035
10,L64T,0.166 ± 0.038
11,L64S,0.31 ± 0.033
12,L64I,-0.393 ± 0.054
13,L64E,0.483 ± 0.045
14,F25D,-0.672 ± 0.093
15,F25C,-0.701 ± 0.08
16,F25K,-0.784 ± 0.071
17,F25G,-0.882 ± 0.076
18,F25P,-0.925 ± 0.084
19,F25E,-0.623 ± 0.094
20,V62I,-0.14 ± 0.052
21,V62M,-0.648 ± 0.072
22,V62Y,-0.82 ± 0.093
23,V62G,-0.524 ± 0.065
24,V62T,-0.476 ± 0.062

row,Variant,abundance fitness
1,V62C,-0.241 ± 0.051
2,D43F,-1.05 ± 0.085
3,D43Y,-0.953 ± 0.076
4,D43I,-0.584 ± 0.061
5,D43W,-0.928 ± 0.097
6,D43C,-0.713 ± 0.079
7,D43L,-0.894 ± 0.049
8,D43S,-0.359 ± 0.039
9,H54F,-1.03 ± 0.085
10,H54A,-0.169 ± 0.039
11,H54N,-0.635 ± 0.064
12,H54C,-0.678 ± 0.058
13,H54Q,0.059 ± 0.048
14,H54M,-0.501 ± 0.064
15,H54I,-0.458 ± 0.054
16,H54T,-0.093 ± 0.045
17,P3Y,0.005 ± 0.047
18,P3R,-0.302 ± 0.046
19,P3E,0.04 ± 0.056
20,P3Q,-0.118 ± 0.051
21,P3T,-0.014 ± 0.041
22,P3W,-0.132 ± 0.062
23,P3V,0.035 ± 0.042
24,I16M,-0.325 ± 0.062

row,Variant,abundance fitness
1,I16E,-0.595 ± 0.1
2,I16D,-0.703 ± 0.15
3,I16V,-0.199 ± 0.052
4,L13D,-0.762 ± 0.1
5,L13W,-0.99 ± 0.095
6,L13R,-0.803 ± 0.06
7,F36V,-0.495 ± 0.051
8,F36Q,-0.705 ± 0.11
9,F36N,-0.719 ± 0.091
10,F36R,-0.794 ± 0.058
11,F36M,-0.354 ± 0.063
12,F36G,-0.642 ± 0.064
13,F36H,-0.638 ± 0.081
14,F36C,-0.849 ± 0.087
15,Y30I,0.042 ± 0.043
16,Y30F,0.058 ± 0.044
17,Y30P,-0.767 ± 0.081
18,Y30M,-0.568 ± 0.074
19,Y30N,-0.833 ± 0.08
20,Y30S,-0.706 ± 0.052
21,F27P,-0.655 ± 0.061
22,F27K,0.507 ± 0.04
23,F27E,0.491 ± 0.047
24,D51G,-0.75 ± 0.063

row,Variant,abundance fitness
1,D51M,-0.845 ± 0.077
2,T35H,0.022 ± 0.047
3,T35S,0.104 ± 0.035
4,T35Y,-0.587 ± 0.064
5,T35M,-0.312 ± 0.059
6,T35R,0.135 ± 0.037
7,D11H,-0.78 ± 0.067
8,D11K,-0.766 ± 0.088
9,D11A,-0.607 ± 0.061
10,D11Q,-0.319 ± 0.052
11,D11W,-0.793 ± 0.093
12,N28G,-0.157 ± 0.043
13,N28L,-0.855 ± 0.058
14,N28V,-0.939 ± 0.076
15,N28Y,-0.208 ± 0.048
16,N28H,0.109 ± 0.041
17,N28A,-0.006 ± 0.04
18,N28T,-0.831 ± 0.069
19,I49V,-0.398 ± 0.042
20,I49G,-0.785 ± 0.062
21,I49Q,-0.92 ± 0.083
22,I49F,-0.851 ± 0.069
23,I49N,-0.926 ± 0.076
